Test results as given in patent US20170240613A1 (REGENTS OF THE UNIVERSITY OF COLORADO A BODY CORPORATE, published 2017).
Blank lines part the entries; values can stand above or below the binder they belong to.

Assays:
[1] = molecular target: T1, human CD112R (form used in Example 18 not stated) (human), Q6DKI7; assay: flow cytometry, CD112-Fc staining of human CD112R; panel '+2H6'
T1 chain: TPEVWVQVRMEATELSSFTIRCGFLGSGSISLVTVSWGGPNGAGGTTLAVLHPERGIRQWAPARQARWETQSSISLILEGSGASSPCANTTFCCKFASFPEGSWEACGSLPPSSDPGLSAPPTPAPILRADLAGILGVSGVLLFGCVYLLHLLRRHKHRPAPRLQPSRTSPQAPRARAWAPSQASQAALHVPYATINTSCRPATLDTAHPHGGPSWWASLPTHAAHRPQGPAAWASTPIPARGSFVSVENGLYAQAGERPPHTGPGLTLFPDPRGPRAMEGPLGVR

[2] = molecular target: T1, human CD112R (form used in Example 18 …); assay: flow cytometry, CD112-Fc staining of human CD112R; panel '+4-4'
[3] = molecular target: T1, human CD112R (form used in Example 18 …); assay: flow cytometry, CD112-Fc staining of human CD112R; panel '+4-5'
[4] = molecular target: T1, human CD112R (form used in Example 18 …); assay: flow cytometry, CD112-Fc staining of human CD112R; panel 'None'
[5] = molecular target: T2, human CD112-Fc fusion protein (human; mouse, UniProt Q92692 32-360); assay: competition on coated CD112 (beads, flow cytometry): staining by CD112R protein in the presence of rising CD226 protein
T2 construct: extracellular domain; Used soluble for cell staining, coated on beads, coated on plates and amine-coupled to a CM5 chip; the Biacore text only says CD112; also called CD112-Ig; CD112 fusion protein; not shown: constant region (Fc) of mouse IgG2a
T2 sequence (looked up): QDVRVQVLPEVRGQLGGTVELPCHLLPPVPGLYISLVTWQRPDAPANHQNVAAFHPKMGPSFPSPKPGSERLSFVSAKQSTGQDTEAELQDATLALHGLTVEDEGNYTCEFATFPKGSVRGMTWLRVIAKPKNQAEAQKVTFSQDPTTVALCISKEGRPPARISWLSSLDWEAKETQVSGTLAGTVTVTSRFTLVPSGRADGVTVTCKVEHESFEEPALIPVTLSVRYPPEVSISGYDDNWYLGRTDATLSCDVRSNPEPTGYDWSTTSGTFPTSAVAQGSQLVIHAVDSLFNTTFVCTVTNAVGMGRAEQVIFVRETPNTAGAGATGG
Description: FIG. 3F depicts graphs showing the competitive binding assay for CD112 among CD112R, CD226, and TIGIT. Coated CD112 was stained by CD112R protein in the presence of different concentration of TIGIT or CD226 protein; on the other hand, coated CD112 were stained by CD226 protein, in the presence of different concentration of CD112R protein.
CD112 is known to interact with both CD226 and TIGIT, though the latter interaction is relatively weak (Bottino et al., 2003; Stanietsky et al., 2009; Yu et al., 2009). It was investigated whether these two counter receptors compete with CD112R for CD112 interaction. CD112 protein was coated on beads, and stained with CD112R protein in the presence of different concentration of TIGIT or CD226 protein. Inclusion of TIGIT had little effect on disrupting this interaction, while CD226 was a good inhibitor of the CD112-CD112R binding (FIG. 3F). […] Because of the weak interaction between CD112 and TIGIT, as well as limited coated CD112 protein on beads, binding between these two molecules by flow cytometry was not observed. […] This conclusion was further supported by the studies that a CD112 mAb, clone TX31, blocked the binding of CD112 to both CD112R and CD226 (FIG. 4B and FIG. 8).

[6] = molecular target: T2, human CD112-Fc fusion protein; assay: SPR, Biacore 3000, CD112 amine-coupled to CM5 chip, CD112R as analyte at 4-333 nM
Description: (§1) FIG. 3D depicts a graph showing BIAcore3000 analysis of CD112R binding to CD112. A series of concentrations of CD112R protein was used to measure the binding kinetics with immobilized CD112.
(§2) All bio sensor experiments were run on a Biacore 3000 instrument (GE Healthcare, Piscataway, N.J., USA). PBS with 0.005% P20 buffer (Gibco) was used as the running buffer for both the immobilization and kinetics experiments. Amine-coupling chemistry was used to immobilize protein FLAG, CD112 and CD155 to a CM5 sensor chip surface at […]. Kinetic experiments were carried out for three different ligands using three different concentration series: 4, 12, 36, 111, 333 nM of CD112R; 9000, 3000, 1000, 333, 111 nM TGIT; 9000, 3000, 1000, 333, 111 nM PVR L3. All samples were diluted in PBS buffer and were injected for 3 minutes across the surface at a flowrate of 20 flL/min and the dissociation of analyte from the surface-bound ligands was monitored for 5 minutes. All analyte concentrations were performed in duplicate and an unmodified reference flow cell was used to correct for instrument drift and/or noise. Buffer blanks were used to double-reference the obtained kinetic data. Raw sensogram data was processed and fit using the Scrubber software package (Version 2.0b, BioLogic Software, Campbell, Australia; http_www_biologic_com_au).

[7] = molecular target: T2, human CD112-Fc fusion protein; assay: Biacore 3000, concentration series of CD112R protein over immobilized CD112
Description: as §1, §2

[8] = molecular target: T3, mouse CD112 on RMA-S cells (RMA-S/mCD112) (mouse, UniProt P32507 32-530); assay: flow cytometry, RMA-S/mCD112 cells against control RMA-S cells
T3 construct: whole, on cells; also called mCD112 transfectants; RMA-S/mCD112 cells
T3 sequence (looked up): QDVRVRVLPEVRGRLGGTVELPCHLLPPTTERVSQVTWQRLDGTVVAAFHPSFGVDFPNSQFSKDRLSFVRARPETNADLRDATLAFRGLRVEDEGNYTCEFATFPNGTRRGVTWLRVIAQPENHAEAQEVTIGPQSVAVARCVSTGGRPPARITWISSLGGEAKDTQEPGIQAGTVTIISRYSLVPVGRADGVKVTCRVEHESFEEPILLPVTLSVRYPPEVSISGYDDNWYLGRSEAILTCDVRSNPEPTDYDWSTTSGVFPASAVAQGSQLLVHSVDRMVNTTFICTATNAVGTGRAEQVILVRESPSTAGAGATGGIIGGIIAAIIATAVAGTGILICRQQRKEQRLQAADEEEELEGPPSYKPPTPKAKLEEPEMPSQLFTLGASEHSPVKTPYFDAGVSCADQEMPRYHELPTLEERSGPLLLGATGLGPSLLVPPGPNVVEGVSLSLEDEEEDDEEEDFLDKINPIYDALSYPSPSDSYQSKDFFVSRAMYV
Description: FIG. 3E depicts graphs showing that the CD112R/CD112 interaction was conserved in mice. RMA-S/mCD112 cells (blue), a mouse lymphoma cell line stably expressing mCD112, or control RMA-S cells (red) were stained with mouse CD112R-Fc, mouse CD226-Fc or mouse TIGIT-Fc respectively.

1 subset (share of events in the gate drawn over the histogram) [1]: 4.26
1 subset (share of events in the gate drawn over the histogram) [2]: 13.8
1 subset (share of events in the gate drawn over the histogram) [3]: 12.8
1 subset (share of events in the gate drawn over the histogram) [4]: 11.2
B1: human CD112-Fc fusion protein, Q92692 32-360 (Fc fusion, UniProt Q92692 32-360, looked up, not shown: a dimerising Fc or GST)
chain: QDVRVQVLPEVRGQLGGTVELPCHLLPPVPGLYISLVTWQRPDAPANHQNVAAFHPKMGPSFPSPKPGSERLSFVSAKQSTGQDTEAELQDATLALHGLTVEDEGNYTCEFATFPKGSVRGMTWLRVIAKPKNQAEAQKVTFSQDPTTVALCISKEGRPPARISWLSSLDWEAKETQVSGTLAGTVTVTSRFTLVPSGRADGVTVTCKVEHESFEEPALIPVTLSVRYPPEVSISGYDDNWYLGRTDATLSCDVRSNPEPTGYDWSTTSGTFPTSAVAQGSQLVIHAVDSLFNTTFVCTVTNAVGMGRAEQVIFVRETPNTAGAGATGG

binding result [5]: binds
B2: human CD226-Fc fusion protein (Fc fusion, UniProt Q15762 19-254, looked up)
chain: EEVLWHTSVPFAENMSLECVYPSMGILTQVEWFKIGTQQDSIAIFSPTHGMVIRKPYAERVYFLNSTMASNNMTLFFRNASEDDVGYYSCSLYTYPQGTWQKVIQVVQSDSFEAAVPSNSHIVSEPGKNVTLTCQPQMTWPVQAVRWEKIQPRQIDLLTYCNLVHGRNFTSKFPRQIVSNCSHGRWSVIVIPDVTVSDSGLYRCYLQASAGENETFVMRLTVAEGKTDNQYTLFVA
notes: extracellular domain; also called CD226 protein; not shown: constant region (Fc) of mouse IgG2a

Kd [6]: 88 nM
Kd [7]: 88.4 nM
B3: human CD112R-mFc protein (extracellular domain of human CD112R fused to mouse IgG2a constant region) (Fc fusion)
chain: TPEVWVQVRMEATELSSFTIRCGFLGSGSISLVTVSWGGPNGAGGTTLAVLHPERGIRQWAPARQARWETQSSISLILEGSGASSPCANTTFCCKFASFPEGSWEACGSLPPSSDPGLSARSPRGPTIKPCPPCKCPAPNLLGGPSVFIFPPKIKDVLMISLSPIVTCVVVDVSEDDPDVQISWFVNNVEVHTAQTQTHREDYNSTLRVVSALPIQHQDWMSGKEFKCKVNNKDLPAPIERTISKPKGSVRAPQVYVLPPPEEEMTKKQVTLTCMVTDFMPEDIYVEWTNNGKTELNYKNTEPVLDSDGSYFMYSKLRVEKKNWVERNSYSCSVVHEGLHNHHTTKSFSRTPGK
notes: also called CD112R fusion protein; CD112R protein

binding result [8]: no binding
B4: mouse TIGIT-Fc fusion protein (Fc fusion, UniProt P86176 29-148, looked up)
chain: TIDTKRNISAEEGGSVILQCHFSSDTAEVTQVDWKQQDQLLAIYSVDLGWHVASVFSDRVVPGPSLGLTFQSLTMNDTGEYFCTYHTYPGGIYKGRIFLKVQESSDDRNGLAQFQTAPLG
notes: extracellular domain; also called TIGIT protein; not shown: Fc
